This is an account of results in patent publication US20230277625A1 (SIMCHA IL 18, published 2023).

In assay [1] the target is T1, Cynomolgus monkey IL-18Rα, biotinylated (cynomolgus monkey, UniProt A0A2K5V3J9 19-328, biotinylated).
T1 sequence: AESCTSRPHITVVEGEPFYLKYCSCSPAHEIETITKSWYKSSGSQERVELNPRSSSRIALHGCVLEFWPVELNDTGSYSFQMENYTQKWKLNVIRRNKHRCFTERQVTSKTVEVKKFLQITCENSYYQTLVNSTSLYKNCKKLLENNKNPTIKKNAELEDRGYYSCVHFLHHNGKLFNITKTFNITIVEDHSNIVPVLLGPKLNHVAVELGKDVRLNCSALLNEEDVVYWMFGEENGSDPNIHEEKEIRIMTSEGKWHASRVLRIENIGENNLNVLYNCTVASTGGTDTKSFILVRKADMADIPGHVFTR
Briefly: SPR single-cycle kinetics, biotinylated cynomolgus IL-18Rα on a streptavidin capture chip, IL-18 variant as analyte. On the procedure: (§1) IL-18 receptor affinity. The affinities of human IL-18 and SEQ ID NO: 19 were determined for both human and cynomolgus monkey IL-18Rα and IL-18BP using surface plasmon resonance. Biotinylated receptor proteins were immobilized on a streptavidin capture chip and IL-18 or SEQ ID NO: 19 were applied as the free analyte. […] were used to determine binding. WT hIL-18 and SEQ ID NO: 19 had similar binding affinity for IL-18Rα in this assay (FIG. 37A).

Assay [2] deals with T2, Human IL-18Rα ectodomain (amino acids 19-329), biotinylated (human, UniProt Q13478 19-329, biotin on the AviTag (BirA ligase)).
T2 construct: range 19-329; Secreted from insect cells (gp67 signal peptide removed); also called hIL-18Rα; hIL18Rα
T2 sequence: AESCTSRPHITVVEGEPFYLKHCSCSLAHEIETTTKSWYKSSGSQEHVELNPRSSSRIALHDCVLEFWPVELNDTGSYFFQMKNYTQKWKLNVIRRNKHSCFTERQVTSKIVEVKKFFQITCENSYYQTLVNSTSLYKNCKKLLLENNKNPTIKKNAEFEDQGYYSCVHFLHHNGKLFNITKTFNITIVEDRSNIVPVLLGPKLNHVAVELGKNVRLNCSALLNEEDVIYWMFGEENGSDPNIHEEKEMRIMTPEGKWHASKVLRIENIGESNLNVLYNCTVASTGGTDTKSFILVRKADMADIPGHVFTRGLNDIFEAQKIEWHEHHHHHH
Briefly: SPR single-cycle kinetics, biotinylated hIL-18Rα on a streptavidin capture chip, IL-18 variant as analyte. The method, then:
as §1

Assay [3] addresses T3, IL-18 receptor (IL-18Rα / IL-18Rβ heterodimer) on HEK-Blue IL-18 reporter cells (UniProt Q13478 19-541; O95256 20-599, limits assumed).
T3 sequence (looked up) 1: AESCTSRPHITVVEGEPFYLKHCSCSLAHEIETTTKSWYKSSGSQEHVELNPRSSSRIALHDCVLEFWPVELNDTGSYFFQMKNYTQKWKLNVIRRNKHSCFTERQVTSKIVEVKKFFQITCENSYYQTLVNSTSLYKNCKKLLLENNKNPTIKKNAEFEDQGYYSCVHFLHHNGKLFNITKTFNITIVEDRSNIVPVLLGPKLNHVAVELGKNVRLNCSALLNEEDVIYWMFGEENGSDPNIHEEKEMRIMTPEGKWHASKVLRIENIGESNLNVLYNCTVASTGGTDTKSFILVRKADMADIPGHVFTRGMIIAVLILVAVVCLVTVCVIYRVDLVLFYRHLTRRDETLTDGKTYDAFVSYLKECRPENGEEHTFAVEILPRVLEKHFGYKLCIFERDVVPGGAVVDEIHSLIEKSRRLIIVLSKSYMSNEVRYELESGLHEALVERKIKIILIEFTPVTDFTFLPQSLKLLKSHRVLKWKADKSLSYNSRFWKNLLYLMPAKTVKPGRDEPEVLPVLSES
T3 sequence (looked up) 2: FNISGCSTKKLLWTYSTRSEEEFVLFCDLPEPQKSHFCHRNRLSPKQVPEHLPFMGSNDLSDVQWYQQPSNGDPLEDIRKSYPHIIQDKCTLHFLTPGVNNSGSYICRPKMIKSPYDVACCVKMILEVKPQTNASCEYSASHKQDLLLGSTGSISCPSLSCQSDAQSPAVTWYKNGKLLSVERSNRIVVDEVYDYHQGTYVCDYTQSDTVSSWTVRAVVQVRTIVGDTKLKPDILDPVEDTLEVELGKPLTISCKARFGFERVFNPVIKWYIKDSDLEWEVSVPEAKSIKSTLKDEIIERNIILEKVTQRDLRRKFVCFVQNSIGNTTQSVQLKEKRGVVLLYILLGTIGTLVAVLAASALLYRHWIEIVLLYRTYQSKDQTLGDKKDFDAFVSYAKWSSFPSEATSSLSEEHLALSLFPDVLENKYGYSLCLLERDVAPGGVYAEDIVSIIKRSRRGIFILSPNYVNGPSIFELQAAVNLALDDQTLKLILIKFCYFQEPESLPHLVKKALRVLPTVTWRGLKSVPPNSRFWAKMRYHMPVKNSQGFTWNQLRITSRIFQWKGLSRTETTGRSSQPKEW
Description: cell-based or functional assay.

Assay [4] has as its target T4, Human IL-18BP (amino acids 31-194), biotinylated (human, UniProt O95998 31-194, biotin on the AviTag (BirA ligase) where used biotinylated).
T4 construct: Soluble decoy receptor; also called hIL-18BP; recombinant IL-18BP
T4 sequence: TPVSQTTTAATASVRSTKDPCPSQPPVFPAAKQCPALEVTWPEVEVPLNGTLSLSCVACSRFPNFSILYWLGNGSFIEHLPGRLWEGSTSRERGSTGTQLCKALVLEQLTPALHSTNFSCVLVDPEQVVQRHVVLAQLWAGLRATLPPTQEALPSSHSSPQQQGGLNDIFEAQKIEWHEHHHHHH
Description: on-yeast binding isotherms; KD ratio relative to WT IL-18.

Assay [5] deals with T4, Human IL-18BP (amino acids 31-194), …. Briefly: SPR; KD for IL-18BP over KD for IL-18Rα. On the procedure: (§2) Experiments were conducted using a Biacore T100 and carried out at 25° C. Biotinylated IL-18Rα or IL-18BP were immobilized onto a Biacore biotin capture chip (Series S CAP sensor chip, GE Healthcare) to yield an Rmax of ˜50 RU (IL-18Rα) or ˜10 RU (IL-18BP). Measurements were made with serial dilutions of the IL-18 variants in HEPES buffered Saline-P+buffer (10 mM HEPES pH 7.4, 150 mM NaCl, 0.005% surfactant P20). The surface was regenerated by three 60-sec injections of regeneration buffer (3/4 (v/v) 8M guanidine hydrochloride with 1/4 (v/v) 1M sodium hydroxide). Experiments were performed in multiple channels simultaneously for increased observations. All data were analyzed with the Biacore T100 evaluation software version 2.0 with a 1:1 Langmuir binding model.
(§3) To additionally characterize the receptor binding activities of the DR-IL-18 variants, the cytokines were expressed recombinantly and surface plasmon resonance for IL-18Rα and IL-18BP was performed (see FIG. 5B for representative traces).
A general note: Surface plasmon resonance follows binding to a sensor surface in real time, without labels.

For assay [6] the target is unchanged. Briefly: SPR; average of 2 studies.
The target of assay [7] is T2, Human IL-18Rα ectodomain (amino acids …). Briefly: SPR; average of 2 studies.
Assay [8] shares this target. Briefly: SPR (Biacore T100), receptor captured via biotin, IL-18 as analyte. The method, then:
as §2, §3

The target of assay [9] is T4, Human IL-18BP (amino acids 31-194), …. Description: SPR (Biacore T100), IL-18BP captured via biotin, IL-18 as analyte. On the procedure: as §2, §3
Assay [10] has the same target. Briefly: SPR; KD(IL-18BP)/KD(IL-18Rα) normalized to WT IL-18.
For assay [11] the target is unchanged. Description: SPR; KD ratio relative to WT IL-18. On the procedure: as §2, §3
The target is the same in assay [12]. Briefly: on-yeast binding isotherm (flow cytometry); members per FIG. 5A legend. The method, then: Individual colonies of IL-18 yeast were grown overnight at 30° C. in SDCAA liquid media and induced in SGCAA liquid media for 1 day at 20° C. IL-18 display levels on yeast were verified by flow cytometry using an anti-cMyc tag antibody (anti-myc-PE; Cell Signaling Technologies). Receptor staining with biotinylated IL-18Rα (with or without IL-18R β) or biotinylated IL-18BP was performed in PBS supplemented with 0.5% BSA and 2 mM EDTA (PBE) on ice. All analysis was performed on a Sony SA3800 flow cytometer.
as §3

Assay [13] has the same target. Briefly: on-yeast binding isotherms; KD for IL-18BP over KD for IL-18Rα.
The target is the same in assay [14]. Description: on-yeast binding isotherm (flow cytometry). A general note: A flow cytometer gives signals particle by particle.
The target is the same in assay [15]. Briefly: on-yeast binding isotherms; 20 µM used for NBD.
Assay [16] has the same target. Description: on-yeast binding isotherms; KD ratio relative to WT IL-18; yeast-displayed variant; ratio normalized to WT, from the 20 µM placeholder.
The target is the same in assay [17]. Briefly: on-yeast binding isotherms; 20 µM used for NBD; yeast-displayed variant; ratio computed with 20 µM put in for NBD.

Changes are numbered by the printed parent chain. In names and notes the source's numbering stands.

B1: SEQ ID NO: 19 (stabilized human DR-IL-18; SEQ ID NO: 89 plus C38S/C68D) (ligand)
chain: YFGKLESKLSVIRNLNDQVLFIDQGNRPLFEDMTDSDSRDNAPRTIFIISKYSDSLARGLAVTISVKDEKISTLSCENKIISFKEMNPPDNIKDTKSDIIFFQRDVPGHSRKMQFESSSYEGYFLACEKERDLFKLILKKEDELGDRSIMFTVQNED
In general, Kd refers to the free concentration of one partner at which half of the binding sites on the other are occupied at equilibrium, for simple one-to-one binding. As to B1, the affinity in assay [1], expressed as Kd, was 10.9 nM. Further, the affinity in assay [2], expressed as Kd, was 18.8 nM. Moreover, in assay [3], the “EC50-#1 (M), HEK-Blue reporter” value was 1.24e-10 M and the “EC50-#2 (M), HEK-Blue reporter” value stood at 7.9e-11 M.

B2: SEQ ID NO: 36 (human DR-IL-18 variant hCS3) (ligand)
chain: B1 chain with Y1R, S38C, K51T, S53K, L56Q, A57P, L60K, D68C, S110K, R111H
notes: Engineered variant
The term EC50 denotes the midpoint of the concentration-response curve. On to B2, for which the “Dissociation Constant Ratio normalized to WT IL-18” value in assay [4] stood at 348; in [11], 3500. The “KD ratio IL-18BP/IL-18Rα” value was found to be 2.27 in assay [5] and 103 in assay [13]. In addition, the Kd is 19.3 nM in assay [6]; 9.1 nM in [7]; 8.18 nM in assay [8]; 18.6 nM in assay [9]; 11600 nM in assay [14]. The “IL-18 BP:Rα Dissociation Constant Ratio” value in assay [10] worked out at 4350. For the same molecule, the EC50 in assay [12] is greater than 1000 nM.

B3: SEQ ID NO: 57 (human DR-IL-18 variant hB9) (ligand)
chain: RFGKHESKLSVIRNLNDQVLFIDQGNRPLFEDMTDSDCRDNAPRTIFIISTYRDSQPRGKAVTISVKCEKISTLSCENKIISFKEMNPPDNIKDTKSDIIFFERNVPGHKYKMQFESSSYEGYFLACEKERDLFKLILKKEDELGDRSIMFTVQNED
notes: Engineered variant
Turning to B3, the “Dissociation Constant Ratio normalized to WT IL-18” value in assay [4] is greater than 534. The “KD ratio IL-18BP/IL-18Rα” value in assay [15] is greater than 157.

B4: SEQ ID NO: 39 (human DR-IL-18 variant hA8) (ligand)
chain: YFGKLESRLSVIRNLNDQVLFIDQGNRPLFEDMTDSDCRDNAPRTIFIISKYKDKQPRAQAVTISVKCEKISTLSCENKIISFKEMNPPDNIKDTKSDIIFFQRDVPGHKHKMQFESSSYEGYFLACEKERDLFKLILKKEDELGDRSIMFTIQNED
notes: Engineered variant
For the molecule B4, in assay [16], the “Dissociation Constant Ratio normalized to WT IL-18” value is greater than 1170. The “KD ratio IL-18BP/IL-18Rα” value in assay [17] was greater than 347.
